This experiment deals with TBC1D23 co-precipitated with GFP-tagged LKB1 (Fig. 8a) (UniProt Q9NUY8). The experiment is described as follows: co-immunoprecipitation (GFP beads) from HEK293T cells, densitometry. The settings on record: parent: est. 1.0; read off a plot.
Sequence of TBC1D23 co-precipitated with GFP-tagged LKB1 (Fig. 8a) (Q9NUY8 whole entry): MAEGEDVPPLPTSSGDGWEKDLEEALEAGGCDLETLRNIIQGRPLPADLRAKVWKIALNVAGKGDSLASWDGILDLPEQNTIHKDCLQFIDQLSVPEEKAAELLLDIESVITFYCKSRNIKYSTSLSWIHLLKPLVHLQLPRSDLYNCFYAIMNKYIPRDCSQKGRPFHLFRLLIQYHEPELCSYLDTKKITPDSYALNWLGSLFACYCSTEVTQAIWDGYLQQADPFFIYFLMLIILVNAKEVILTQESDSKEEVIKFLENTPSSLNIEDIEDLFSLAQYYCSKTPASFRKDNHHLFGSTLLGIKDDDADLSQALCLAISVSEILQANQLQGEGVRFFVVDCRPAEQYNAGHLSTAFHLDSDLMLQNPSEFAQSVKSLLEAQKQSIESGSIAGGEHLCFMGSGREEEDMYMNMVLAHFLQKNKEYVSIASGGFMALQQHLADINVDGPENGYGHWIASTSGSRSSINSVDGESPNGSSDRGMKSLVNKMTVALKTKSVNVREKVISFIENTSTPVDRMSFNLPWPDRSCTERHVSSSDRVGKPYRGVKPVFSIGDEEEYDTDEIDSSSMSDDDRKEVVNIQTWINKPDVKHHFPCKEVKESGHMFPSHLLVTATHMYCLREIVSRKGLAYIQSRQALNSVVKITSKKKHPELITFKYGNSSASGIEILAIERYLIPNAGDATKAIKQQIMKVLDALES

In the case of GFP-LKB1 CRD F354A, the ratio to parent was 0.75.
The result for GFP-LKB1 CRD F354L reads 0.82.
